Assay: yeast display, Sf9 membrane polyspecificity reagent, FACS + sequencing; frameworks hold sequencing errors
Summary of the method: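 Nanobodies from a synthetic yeast display library (Saccharomyces cerevisiae BJ5465), induced 36–48 hours with galactose, were stained 1 hour at 4 °C with 10% biotinylated, detergent-solubilized Sf9 membrane reagent, enriched on streptavidin microbeads, then FACS-sorted. Anti-HA (expression) and streptavidin (reagent binding) fluorescence set low and high (top ~1%) gates. Polyreactivity labels come from the gate of origin. Genes were colony-PCR amplified, MiSeq 2 × 250 sequenced and filtered by CDR length.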

Sequence	polyreactivity (PSR sort gate)
QVQLVESRGGLVQAGGSLRLSCAASGFTFSGNARGWYRQAPGKERECVAAISNRSGRTYYADSVKGRFTISRYNAKNTVYLQMNSLKPEDTAVYYCAAESIYTWGIRGDYWGHGTQVTVSS	high polyreactivity
QVQLVESRGGLVQAGGSLRLSCAASGITFRYYAMGWYRQEPGKERELVAAINRGGDSTYYADSVKGRFTISRDIAKNTVYLQMNSLKPVDTAVYYCAASSSNKEYDYWGLGTQVTVSS	high polyreactivity
QVQLVESRGGLVQAGGSLRLSCAASGLIFLGYAMGWYRQAPGKERELVASIRTGGSTSYADSVKGRFTISRDNAKNTVYLQMNSLKPEDTAVYYCAADRGRPNLPGDYWGQGTQVTVSS	low polyreactivity
QVQLVESRGGLVQAGGSLRLSCAASGNTFQPYAMGWYRQAPGKERELVAAITWSGDTTYYADSVKARFTISRDNAKNTVYLQMNSLKPEDTAVYYCYPYFWYPDGYTYDYWGQGTQVTVSS	high polyreactivity
QVQLVESRGGLVQAGGSLRLSCAASGRIFAWNAMGWSRQAPGKERELVAVITSGGNTNYADSVTGRFTISRDNAKNTVYLQLNSLKPEDTAVYYCPKIGYAKRTRFWSHYDYWGQGTQVTVSS	high polyreactivity
QVQLVESRGGLVQAGGSLRLSCAASGRIFSKYAMGWYRQAPGKERELVAGITIAGRTKYADSVKGRFTISRDNAKNTVYLQMNSQKPEDTAVYYCAARAQATGGYGYWGQGTQVTVSS	high polyreactivity
QVQLVESRGGLVQAGGSLRLSCAASGRIIGYNAMGCYRQAPGKERELVAAINSDGSKNYADSVKGRFTISRDNAKNTVYLQMNSLKPEDTAVYYSIKELYPVGDYEYWGQGSQVTVSS	low polyreactivity
QVQLVESRGGLVQAGGSLRLSCAASGRILDLNSMGWYRQAPGKEREFVAAISYSGGRTYYADSVKGRFTISRDNAKNTVYLQMNSLKPEDTAVYYCATDDVWKDGYWGQGTQVTVSS	low polyreactivity
QVQLVESRGGLVQAGGSLRLSCAASGRTFGGYAMGWYRQAPGKERELVAAISTRGGTTYYADSVKGRFTISRDNAKNTVYLQMNSLKPEDTAVYYCAAVYLYYYNRYYYWGQGSQVTVSS	high polyreactivity
QVQLVESRGGLVQAGGSLRLSCAASGRTFQYYAKGWYRQERGKVRELVAAISGSTSRTYYADSVKGRFTISRDNAKNTVYLQMNSLKPEDTAVSYCAAALYRLYITSYYYWGPGTQVTVSS	high polyreactivity
QVQLVESRGGLVQAGGSLRLSCAASGRTFRSYVMGWYRQAPGKERELVAAITTSGGSTYYADSVKGRFTISRDTAKNTVYLQMNSLKPEETAVYYCAAEYYTYTGHYDSWYGDDYWGQGTQVTVSS	high polyreactivity
QVQLVESRGGLVQAGGSLRLSCAASGRTFWYYAMGWYRQAPGKELELVATITGSGGTTYYADSVKGRFTISRDNAKNTVYLQMNSLKPEDTAVYYCAKEQHWYIYGPAEVDYWGQGTQVTVSS	high polyreactivity
QVQLVESRGGLVQAGGSLRLSCAASGRTLKYNVMGWYRQAPGKERELVASITSRGGSTRYADSVKGRFTISRDNAKNTVYLQMNSLKPEDTAVYYCAARYTTARSSYDYWGQGTQVTVSS	high polyreactivity
QVQLVESRGGLVQAGGSLRLSCAASGSIFAIYTMGWYRQAPGKERELVAAITGNGGRTYYADSVKGRFTISRDNAKNTVYLQMNSLKPEDTAVYYCAVVGYHRDYDYWGQGTQVTVSS	low polyreactivity
QVQLVESRGGLVQAGGSLRLSCAASGSIFDVNAMGWYRQAPGKERELVAAISQRGTRTYYADSVKGRFTISRDNAKNTVYLQMNSLKPEDTAVYYCNRGGWREYDSWGQGTQVTVSS	high polyreactivity
QVQLVESRGGLVQAGGSLRLSCAASGSIFGWYAMGWYRPAPGKERELVAAINWSGGRTYYADSVKGRFTISRDNAKNTVYLQMNRLKPEDTAVYYCNKVVPGYSAPKYDYWGQGTQVTVSS	high polyreactivity
QVQLVESRGGLVQAGGSLRLSCAASGSIFNYNAMGCYRQAPGKEREFVAAINQGGTSTYYADSVKGRFTISRDNANHTVYLQMNSLKPEDTAVYYCAALITVYRGSYEYCGQGTQVTVSS	low polyreactivity
QVQLVESRGGLVQAGGSLRLSCAASGSIFVWNAKGWYRQAPGKERELVAAINVRSASTFYADSVKGRFTISRDIAKNTVYLQMNSLKPEDTAVYYCATSYTKQGFRYYYWGQGTQVTVSS	high polyreactivity
QVQLVESRGGLVQAGGSLRLSCAASGSNFYAYAMGWYRQAPGKERELVAAISWSTSSTYADSVKGRFTISRDNAKNTVYLQMNSLKPEDTAVYYCAASPYKGTGAEFDYWGQGTQVTVSS	low polyreactivity
QVQLVESRGGLVQAGGSLRLSCAASGSTFNYYTMGWNRQAPGKERELVATITSGGTTYYADSVKGRFTISRDNAKNTVYLQMNSLKPEDTAVYYCAVQLRRHVDMDYWGQGTQVTVSS	high polyreactivity
QVQLVESRGGLVQAGGSLRLSCAASGSTFTYNAMGWYRQAPGKERELDAAISSDGRTYYADSVKGRFTISRDNAKNTVYLQMNSLQPEDTALYYCAAMYWFYVYPFTEYDYWGQGTQVTVSS	low polyreactivity
QVQLVESRGGLVQAGGSLRLSCAASGSTFTYYAMGWYRQAPGKERELVAAITFRGDSTYYADSVKVRFTISRDNAKNTVYFQMNSLKPEDTAVYYWGQGTQVTVSS	low polyreactivity

Sequence	polyreactivity (PSR sort gate)
QVQLVESRGGLVQAGGSLRLSCAASGSTLSQNAMGWYRQAPGKEREFDADISGSGDSTYYADSVKGRFTISRDNAKNTFYLQMNSLKPEDTAVYYCATPSPHVGLKWEYDYWGQGTQVTVSS	low polyreactivity
QVQLVESRGGLVQAGGSLRLSCAASGSTLYQYAMGWYRQAPGKERELVAAITKSGGRTYYADSVKGRFTISRDNAKNTVYLHMNSLKPEDTAVYYCNVVRGSYSSGGDYWGQGTQVTVSS	high polyreactivity
QVQLVESRGGLVQAGGSLRLSCAASGYIFRSNAMGWYRQAPGKERELVAAITRSGGSTYYADSVKGRFTISRDNAKITVFLQMNSLKPEDTAVYYCAVLPRGSNGMDYWGQGTQVTVSS	low polyreactivity
QVQLVESRGGLVQAGGSLRLSCAASGYTFDWYTMGWYRQAPGKERELVAAISASGVRTYYADSVKGRFTISRDNAKNTVYLQMNSLKPEDTAVYYCYRVYSTSRITQYEFDYWGLGTQVTVSS	low polyreactivity
QVQLVESRGGLVQAGGSLRLSCAASVRTFQKNTMGWYRQAPGKERELVAAIDYSATSTYYADSVKGRFTISRDNAKNTVYLQMNSLKPEDTAVYYCAARWSYPRWEFDYWGQGTQVTVSS	high polyreactivity
QVQLVESRGGLVQAGGSLRLSCSASGFIRTYAMGWYRQAPAKERELVAAITSSGGRTNYADSVKGRFTISRDNAKNTVYLQMNSLKPEDTAVYYCAAGLGRYLRYNYWGQGTQVTVSS	high polyreactivity
QVQLVESRGGLVQAGGSLRLSCSASGITFNHYAMGWYRQAPGKERQLVAAITGSGGSTYYADSVKGRFTISRDNGKNTVYLQMNSLKPEDTAVYYCKTSPKLTYAVLYDYWGQGTQVTVSS	high polyreactivity
QVQLVESRGGLVQAGGSLRLSSAASGFIFDDNAMGWYRQAPGKERQLVAAITSGGGSTYYADSVKGRFTISRDNAKNTVYLQMNSLKPDDTAVYSCNAKLFIRWFTYDYWGQGTQVTVSS	low polyreactivity
QVQLVESRGGLVQAGGSLRLTCAAYGRIFLVYDMGWYRHAPGKERELVAAISWSTGSTYYADSVKGRFTISRDNAKNTFYFQINSLITEDTAVYYCAAEPELDDYEHDYWGQGTQLTVSS	low polyreactivity
QVQLVESRGGLVQVGGSLRLSCAASGRTFGRYAMGWYRQAPGNERELVAAINSVARTNYADSVKGRFTISRDNAKNTVYLQMNSLKPEDSAVYYCAARRRGSVGVGYAYPYNYWGQGTQVTVSS	high polyreactivity
QVQLVESRGGVVQAGGSLRLSSAASGTFVYAMGWYRQAPGKERELVAAISYSGGSTYYADSVKGRFTISRDNAKNTVYLQMNSLKPEDTAVYYCAARTTLSYGYDYWGQGTQVTVSS	high polyreactivity
QVQLVESRRGLVQAGASLPLRCAASVSTLDTYAMGLYRQAPGKERELVAAISRSGNSTYYADSVKGRFTISRDNAKNTVYLQMNSLKPEDTAVYYCAAYGPRVNGEIGREYYYWGQGTQVTVSS	low polyreactivity
QVQLVESRRGLVQAGGSIRLSCAASGSTFPYNAMGWYRQAPGKDRELVAAITSAGGTNYADSVKGRFTISRDNAKNSVYLQMNSLKPEDSAVYSCAAVGSGYYDGYFYWGQGTQVTVSS	low polyreactivity
QVQLVESRVGLVQAGGSLRLSCAASGFTFGHYVMGWYRQAPGKERELVAAITLSGGGTYYADSVKGRFTISRDNAKNTVYLQMNSLKPEDTAVYYCAAVGGEHAKKTYSRYKVDYWGQGTQVTVSS	low polyreactivity
QVQLVESSGGLVQAGGSLRLSCAASGSTFALYAMGRYSQAPGKERELVAAITASGGSTYYADSVKGRLTISRDIAKKTVDLQMNSLKAEDTAVYYCATGRTKRYLYPPGYWGQGTQVTVSS	high polyreactivity
QVQLVESVGCLVQAGGSLRLSCPASGFNFPGYALGWYRQAPGKERELVAAITGSGGRTYYADSVKGRFTISRDNAKNTVYLQMNSLKQEDTAVYYCLARSYYNWNDYWGQGTQVTVSS	high polyreactivity
QVQLVESVGGIVQAGGSLRLSCAASGSIINWYAMGWYRQAPGKERELVAAISSSGSTNYADSVKGRFTISRDNAKNTVYLQMNSLKPEDTAVYYCNADEYYLNNYNYGYWGQGTQVTVSS	low polyreactivity
QVQLVESVGGLDQAGGSLRLSCAASGFTFQYYAMGWYRQAPGKERELVAAITSNGGGTYYADSVKGRFTISRDNAKNTVYLQMNSLKPEDTAVYYCAADRWYSMDYWGQGTQVTVSS	high polyreactivity
QVQLVESVGGLGQAGGSLRLSCAASGSTFAGYTMGWYRQAPGKERELVAANTSRGGRTYYADSVKGRFTISRDNAKNTVYIQMNSLKPEDTAVYYCAAVSRYYAELMYYWGQGTQVTVSS	high polyreactivity
QVQLVESVGGLLQAGGSLRLSCAASGFTFSGNGRGWYRQAPGKERELVAAITSTGNTYYADSVKGRFTISRDNAKKTVYLQMNRLKPEDTAVYYCARRGDLLYDYWGQGTQVTVSS	low polyreactivity
QVQLVESVGGLLQAGGSLRLSCAASGSIFRGYAMGWYRQAPGKERDLVAAISWSGGSTYYADSVKGRFTISRDNAKNTVYLQMNRLKPEDTAVYYCAADRVVFGYWYYYWGQGTQVTVSS	high polyreactivity
